According to patent US20220226469A1:

Target: Fc tagged human SIRPα (ACRO #SIG-H5251, genotype variant 1) (human) (UniProt P78324)
Experiment: solid-phase ELISA on plate-coated Fc tagged human SIRPα; apparent Kd

Fc tagged human SIRPα (ACRO #SIG-H5251, genotype variant 1) (human), sequence (P78324 31-370, change not shown): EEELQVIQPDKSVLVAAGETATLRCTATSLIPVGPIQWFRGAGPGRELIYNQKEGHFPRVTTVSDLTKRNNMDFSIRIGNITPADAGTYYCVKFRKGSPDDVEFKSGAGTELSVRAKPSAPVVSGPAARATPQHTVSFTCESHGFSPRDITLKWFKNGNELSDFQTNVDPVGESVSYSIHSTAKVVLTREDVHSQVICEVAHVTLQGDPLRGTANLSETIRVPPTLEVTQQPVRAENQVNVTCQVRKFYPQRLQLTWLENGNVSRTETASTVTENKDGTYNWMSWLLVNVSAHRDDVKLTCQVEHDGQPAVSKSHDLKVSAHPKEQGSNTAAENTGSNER

| Binder | Kd |
| --- | --- |
| SIRP6 (antibody, V domains shown) VH: QIQLVQSGPELKKPGETVKISCKASGYTFTDYGVNWVKQGPGKDLQWMGWVNTNTRESTYVEDFKGRFAFSLETSASTAYLQINNLKNEDSSTYFCARGAYDAYYYYYGMDYWGQGTSVTVSS VL: DIQMTQSPASLSASVGETVTITCRASENIYSYLTWYKQKQGKSPQLLVYNAKTLAEGVPSRFSGSGSGTQFSLKINSLQPEDFGSYYCQHHYGSPRTFGGGTKLEIK | 0.131 nM |
| SIRP8 (antibody, V domains shown) VH: EVQLQESGGGLVKPGGSLKLSCAASGFTLSTYTMSWVRQTPEKRLEWVAIITSGDTYTYYPDSVKGRFTISRDNAKNTLYLQMSSLKSEDTGMYYCTRDRPLFHWGQGTTLTVST VL: QIVLTQSPAIMSASPGEKVTMTCSASSSVSYMYWYQQKPGSSPRLLIYDTSNLASGVPVRFSGSGSGTSYSLTISRMEAEDAATYYCQQWSSFPWTFGGGTKLEIK | 0.057 nM |
| SIRP7 (antibody, V domains shown) VH: EVQLQQSGPELVKPGASVKMSCRASGYTFSTYVMHWIKHRPGQGLEWIGYINPNNDGPNYNEKFKGKATLTSDISSSTAYMELSSLTSEDSAVYFCSRWDSYNSAAGFAYWGHGTLVTVSA VL: EIVLTQSPTTMAASPGEKITIICSASSSISSNFLHWYQQKPGFSPRFLIYRTSILASGVPTRFSGSGSGTSYSLTIDTMEAEDVATYYCQQGSGLPLTFGSGTKLEIK | 0.197 nM |
| SIRP4 (antibody, V domains shown) VH: EVQLQQSGPDLVKPGASVKISCKASGYSFTDYFLNWVKQSHGKSLEWIGRINPYNGDSFINQNFRDKATLTVDKSSTTAHMDLLSLTSEDSAIYYCGRGGYDGYFIAYFDYWGQGSLVTVSA VL: DIKLTQSQSSMYSSLGQRVTITCKASQDINSHLSWFQEKPGKSPKTLIYRANRLADGVPSRFSGSGSGQDYFLTISSLEYEDVGIYYCLQYDEFPYTFGGGTKLEIK | 0.161 nM |
| SIRP1 (antibody, mouse IgG1, kappa, V domains shown) VH: QVQLQQSGAELMKPGASVKISCKATGYSFTKYWIEWVKQRPGHGLEWIGEILPGSVITNYNEKFKGKATFTADTSSNTVYMQLSSLTSEDSAVYYCTKWGLYDSDDGVDYWGQGTTLTVSS VL: ENVLTQSPAIMSASLGEKVTMSCRASSGVNYMYWYQQKSDASPKLLIYYTSILAPGVPARFSGSGSGNSYSLTISSMEGEDAATYYCQQFTSSPYTFGGGTKLEIKR | 0.039 nM |
| SIRP5 (antibody, V domains shown) VH: QVQLQQSAAELARPGASVKMSCKASGYTFTSYTMHWVKQRPGQGLEWIGYINPTIGYTEYNQKFKDKTTLTADKSSSTAYMQLSSLTSEDSAVYYCVRLVITSVLGRAMDYWGQGTSVTVSS VL: QIVLTQSPALMSASPGEKVTMTCSASSSVSYMYWFQQKPRSSPKPWIYLTSNLASGVPARFSGSGSGTSYSLTISSMEAEDAATYYCQQWSGNPFTFGSGTKLEIK | 0.065 nM |
| SIRP3 (antibody, mouse IgG1, kappa, V domains shown) VH: EVQLQQSGPEVVKPGASVKMSCKASGYTFTSYVMHWVKQKPGQGLEWIGYINPYNDGPKYNEKFKGKATLTSDKSSSTAYMELSSLTSEDSAVYFCARWDYFNSASGFAFWGQGTLVTVSA VL: EIVLTQSPTTMAASPGEKITIICSASSIIGSDFLHWYQQRPGFSPKFLIYRTSILASGVPTRFTGSGSGTSYSLTIGTMEAEDVATYYCQQGSGLPLTFGSGTKLEMKR | 0.289 nM |
| SIRP2 (antibody, mouse IgG1, kappa, V domains shown) VH: EVKLVESGGGLVQPGGSLKLSCAASGFSFSGCTMSWIRQTPERRLEWVAYISNGGDITYYPDTVKGRFTISRDNAKNSLYLQMSSLKSEDTAMYYCARLDGYYYAMDFWGQGTSVTVSS VL: DILLTQSPAILSVSPGERVSFSCRASQSIGTSIHWYQQRTNGSPRLLIKYGSESISGIPSRFSGSGSGTDFTLSINSVESEDIADYYCQQSNTWPLTFGDGTKLELKR | 0.182 nM |

Second part, the binder after the results:

| Kd | Binder |
| --- | --- |
| 0.583 nM | SIRP9 (antibody, V domains shown) VH: EVQLQESGAELVRPGASVKLSCKALGYTFTDYEIHWVKETPVYGLEWIGDIHPGSGGTANNQKFKGKATLTADKSSNTAYMELSSLTSEDSAVYYCTRAVSGYYAMDYWGQGTSVTVSS VL: DIQMTQSSSSFSGSLGDRLTINCKASEDIYDRVAWYQQKPGNAPRLLISGTASLETGVLSRFSGSGSGKDYTLSINGLQAEDVATYYCQQYWTTPWTFGGGTKLEIK |
| > 10 nM | SIRP10 (antibody, V domains shown) VH: EVQLQESGAELVRPGTSVKMSCKAAGYTFSNYLIGWIKQRPGHGLEWIGDIYPGDNNTNYNEKFRVKATLTADTSSNTAYMHLTSLTSEDSAIYYCAGGTDYDGFANWGQGTLVTVSA VL: ENVLTQSPAIMSASLGEKVTMSCRASSSVNYMYWYQQKSDASPKLWIYYTSKLAPGVPARFSGSGSGNSYSLTISSMEGEDAATYYCQQFTSSPFTFGSGTKLEIK |
| 0.165 nM | SIRP12 (antibody, human IgG4 S228P, kappa, V domains shown) VH: QVQLVQSGAEVKKPGASVKVSCKASGYSFTDYFLNWVRQAPGQGLEWMGRINPYNGDSFINQNFRDRVTMTRDTSTSTVYMELSSLRSEDTAVYYCARGGYDGYFIAYFDYWGAGTTVTVSS VL: DIQMTQSPSSLSASVGDRVTITCKASQDINSHLSWYQQKPGKAPKLLIYRANRLATGVPSRFSGSGSGTDFTFTISSLEYEDIATYYCLQYDEFPYTFGGGTKLEIKR |
| 0.274 nM | SIRP21 (antibody, human IgG4 S228P, kappa, V domains shown) VH: QVQLVQSGAEVKKPGASVKVSCKASGYSFTDYFLNWVRQAPGQGLEWMGRINPYNGDSFINQNFRDRVTMTVDTSTSTVYMELSSLRSEDTAVYYCARGGYDGYFIAYFDYWGAGTTVTVSS VL: DIQMTQSPSSLSASVGDRVTITCKASQDINSHLSWYQQKPGKAPKLLIYRANRLATGVPSRFSGSGSGTDFTFTISSLEYEDIATYYCLQYDEFPYTFGGGTKLEIKR |
| 0.364 nM | SIRP18 (antibody, human IgG4 S228P, kappa, V domains shown) VH: EVQLVQSGAEVKKPGESLKISCKGSGYSFTDYFLNWVRQMPGKGLEWMGRINPYNGDSFINQNFRDQVTISADKSISTAYLQWSSLKASDTAMYYCARGGYDGYFIAYFDYWGAGTTVTVSS VL: DIQMTQSPSSLSASVGDRVTITCKASQDINSHLSWYQQKPGKAPKLLIYRANRLATGVPSRFSGSGSGTDFTFTISSLEYEDIATYYCLQYDEFPYTFGGGTKLEIKR |
| 0.608 nM | SIRP15 (antibody, human IgG4 S228P, kappa, V domains shown) VH: QVQLVQSGAEVKKPGSSVKVSCKASGYSFTDYFLNWVRQAPGQGLEWMGRINPYNGDSFINQNFRDRVTITADKSTSTAYMELSSLRSEDTAVYYCARGGYDGYFIAYFDYWGAGTTVTVSS VL: DIQMTQSPSSLSASVGDRVTITCKASQDINSHLSWYQQKPGKAPKLLIYRANRLATGVPSRFSGSGSGTDFTFTISSLEYEDIATYYCLQYDEFPYTFGGGTKLEIKR |
| 0.164 nM | SIRP23 (antibody, human IgG4 S228P, kappa, V domains shown) VH: EVQLQQSGPDLVKPGASVKISCKASGYSFTDYFLNWVKQSHGKSLEWIGRINPYNGDSFINQNFRDKATLTVDKSSTTAHMDLLSLTSEDSAIYYCGRGGYDGYFIAYFDYWGQGSLVTVSA VL: DIKMTQSPSSMYASLGQRVTITCKASQDINSHLSWFQEKPGKSPKTLIYRANRLADGVPSRFSGSGSGQDYFLTISSLEYEDVGIYYCLQYDEFPYTFGGGTKLEIKR |
